The values that follow come from patent US10471163B2, “Activatable fibrin-binding probes” (priority 2013, dated 2019).

Numbered stars: 1 amine (or outer) side, 2 acyl side, 3 side chain; on linkers, the order of the positions; unused ones are H or OH. Bridge positions count the residues as written; N and C are the ends. TRITC = tetramethylrhodamine dye; Cysteamine = C(CS[*:2])N[*:1]; Ahx = NCCCCCC(=O)O

The target in assay [1] is T1, PDI (Homo sapiens, UniProt P07237). Briefly: Real-time fluorescence anisotropy assay of TRITC-Tn6-MDS activation in presence of DD(E). In kind it is biochemical. Particulars: only when both PDI and DTT are present simultaneously; 2 μM DD(E). The procedure:
These experiments were conducted in the same assay buffer as was used for the LC-MS experiment described above.

In assay [2] the target is T1, PDI. Kind of assay: LC-MS analysis of conversion of TRITC-Tn6-MDS to cyclized form. In kind it is biochemical. The protocol: This mixed disulfide (MDS) probe, denoted as TRITC-Tn6-MDS, was then tested to determine whether it could be recognized as a substrate by PDI. Conversion of the probe from the mixed-disulfide (MDS) form to the cyclized form was followed by LC-MS under three sets of reaction conditions (PDI alone; DTT alone; and PDI+DTT). The assay buffer for these experiments was 50 mM TRIS, 100 mM NaCl, 2 mM CaCl, and 0.1% Triton X-100.

In assay [3] the target is fibrin fragment DD(E) (Homo sapiens, UniProt P02671+P02675+P02679). Kind of assay: Direct binding to DD(E) by fluorescence anisotropy. Conditions: serial dilution of DD(E). The protocol:
The binding constants of the TRITC-Tn6-MDS probe and its activated cyclic form were then measured with the fibrin fragment DD(E). A serial dilution of the DD(E) protein was prepared and then mixed with the two probes. […] Therefore, the disulfide linkage of this probe can act as a switch for binding.
A general note: Polarisation of emitted light reports the rotation of a fluorescent probe.

In assay [4] the target is DD(E) (soluble protein fragment of fibrin) (Homo sapiens, UniProt P02671+P02675+P02679). Particulars: known value used for the competition assay; read-out: dissociation constant (Kd) of the TRITC-Tn6 probe for DD(E), known value; cited from earlier work.
Chain of DD(E) (soluble protein fragment of fibrin) (P02671 130-216): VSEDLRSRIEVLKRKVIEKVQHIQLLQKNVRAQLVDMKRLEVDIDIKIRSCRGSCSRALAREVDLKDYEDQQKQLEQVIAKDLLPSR
Chain of DD(E) (soluble protein fragment of fibrin) (P02675 164-491): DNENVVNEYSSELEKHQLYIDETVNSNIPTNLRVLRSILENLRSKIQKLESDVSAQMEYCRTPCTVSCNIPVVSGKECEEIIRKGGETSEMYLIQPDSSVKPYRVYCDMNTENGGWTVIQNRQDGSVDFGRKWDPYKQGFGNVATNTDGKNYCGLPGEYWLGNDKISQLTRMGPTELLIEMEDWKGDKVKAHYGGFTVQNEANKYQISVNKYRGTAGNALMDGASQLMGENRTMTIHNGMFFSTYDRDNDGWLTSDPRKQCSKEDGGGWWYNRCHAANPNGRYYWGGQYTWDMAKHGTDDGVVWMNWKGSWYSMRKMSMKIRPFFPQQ
Chain of DD(E) (soluble protein fragment of fibrin) (P02679 114-432): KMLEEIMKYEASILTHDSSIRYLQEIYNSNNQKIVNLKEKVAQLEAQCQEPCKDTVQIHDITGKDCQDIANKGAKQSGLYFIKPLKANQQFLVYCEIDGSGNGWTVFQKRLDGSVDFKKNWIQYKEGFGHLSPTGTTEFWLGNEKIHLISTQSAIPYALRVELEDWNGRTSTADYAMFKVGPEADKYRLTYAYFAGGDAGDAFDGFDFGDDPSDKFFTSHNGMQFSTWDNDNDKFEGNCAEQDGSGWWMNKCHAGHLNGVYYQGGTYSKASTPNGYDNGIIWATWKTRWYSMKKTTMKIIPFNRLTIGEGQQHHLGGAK
Chain of DD(E) (soluble protein fragment of fibrin) (P02671 36-97): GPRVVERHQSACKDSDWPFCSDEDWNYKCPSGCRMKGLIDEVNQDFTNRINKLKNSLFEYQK
Chain of DD(E) (soluble protein fragment of fibrin) (P02675 45-152): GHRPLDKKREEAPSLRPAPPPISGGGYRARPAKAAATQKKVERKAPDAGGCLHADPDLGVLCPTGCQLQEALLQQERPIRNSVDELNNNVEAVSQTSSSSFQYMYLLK
Chain of DD(E) (soluble protein fragment of fibrin) (P02679 27-88): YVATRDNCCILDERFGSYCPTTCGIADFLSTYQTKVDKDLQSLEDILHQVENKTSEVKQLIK

T1 sequence (P07237 18-508, species assumed): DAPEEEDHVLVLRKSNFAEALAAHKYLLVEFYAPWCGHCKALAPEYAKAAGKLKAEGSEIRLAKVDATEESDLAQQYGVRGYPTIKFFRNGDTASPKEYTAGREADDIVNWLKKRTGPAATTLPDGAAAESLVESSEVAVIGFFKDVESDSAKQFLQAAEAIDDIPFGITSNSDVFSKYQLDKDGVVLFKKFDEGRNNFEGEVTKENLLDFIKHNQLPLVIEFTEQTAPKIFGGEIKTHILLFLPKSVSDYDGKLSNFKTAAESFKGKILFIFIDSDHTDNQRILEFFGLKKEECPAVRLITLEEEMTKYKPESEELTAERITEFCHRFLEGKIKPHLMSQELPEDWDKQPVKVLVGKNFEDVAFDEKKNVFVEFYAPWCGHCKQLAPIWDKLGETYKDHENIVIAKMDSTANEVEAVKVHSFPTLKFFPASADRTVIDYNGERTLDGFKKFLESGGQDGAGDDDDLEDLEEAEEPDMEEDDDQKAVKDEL
Chain of fibrin fragment DD(E) (P02671 130-216): as the sequence (P02671 130-216) above
Chain of fibrin fragment DD(E) (P02675 164-491): as the sequence (P02675 164-491) above
Chain of fibrin fragment DD(E) (P02679 114-432): as the sequence (P02679 114-432) above
Chain of fibrin fragment DD(E) (P02671 36-97): as the sequence (P02671 36-97) above
Chain of fibrin fragment DD(E) (P02675 45-152): as the sequence (P02675 45-152) above
Chain of fibrin fragment DD(E) (P02679 27-88): as the sequence (P02679 27-88) above

Consider “TRITCAha -QWECPYGLCWIQ-NH2 ({TRITC-Ahx}-QWEC(Cysteamine)PYGLC(Cysteamine)WIQ-NH2) [TRITC-Tn6-MDS, linear optical probe; N-terminal tetramethylrhodamine via 6-aminohexanoic acid linker; two cysteines protected as mixed disulfides with cystamine]”, for which, in assay [1], the “activation of the probe (cyclization and binding to DD(E))” value was “efficiently activated”. The “conversion of mixed-disulfide form to cyclized form” value in assay [2] (PDI alone) was “does not promote cyclization”; in assay [2] (PDI in the presence of DTT, compared to DTT alone), “rapid conversion”. Also, the “Kd for DD(E) relative to that of the cyclic form” value in assay [3] was “roughly 20 fold”.

For orientation: Kd means the free concentration of one partner at which half of the binding sites on the other are occupied at equilibrium, for simple one-to-one binding. On to “TRITC-Tn6: fluorescent peptide structurally similar to EP-2104R that binds the same site on DD(E) ({TRITC-Ahx}-QWECPYGLCWIQ-NH2; disulfide 4-9 (inferred))”, for which the Kd in assay [4] was 0.51 µM.
